This experiment deals with T1, Beta-amyloid peptide Aβ42.
T1 construct: beta-amyloid peptide 1-42, a stretch of the amyloid precursor protein; free N-terminus [H2N] and C-terminus [COOH] as printed; Monomerised with HFIP and dissolved in DMSO; for the ITC kinetics treated with 10% NH4OH, lyophilised and resuspended in reaction buffer; source: synthetic peptide, bought: Biopeptide
Nature of the experiment: ELISA; sandwich ELISA: Aβ42 (1 μM) captured on immobilised anti-Aβ1-17 antibody, Ate1 added for 90 min at 37°C (30 mM KCl, 5 mM MgCl2, 15 μM Arg, 1 mM ATP, 50 mM Hepes pH 7.5), read by loss of the anti-Aβ36-42 detection antibody signal (OD450); without tRNA. To be noted: both partners purified. On the technique in general: ELISA stands for enzyme-linked immunosorbent assay.

B1: Arginyl-tRNA-protein transferase Ate1, isoform Ate1-3 (enzyme, mouse, UniProt Q9Z2A5-3 1-509, looked up)
chain: MASVVEYKGLKAGYYCGYCESREGKTSCGMWAHSMTVQDYQDLIDRGWRRSGKYVYKPVMDQTCCPQYTIRCHPLQFQPSKSHKKVLKKMLKFLAKGEISKGNCEDEPMDSTVEDAVDGDFALINKLDIKCDLKTLSDLKGSIESEEKEKEKSIKKEGSKEFIHPQSIEEKLGSGEPSHPIKVHIGPKPGKGADLSKPPCRKAREMRKERQRLKRMQQASAAASEAQGQPVCLLPKAKSNQPKSLEDLIFQSLPENASHKLEVRVVRSSPPSPQFRATFQESYQVYKRYQMVVHKDPPDKPTVSQFTRFLCSSPLEAEHPADGPECGYGSFHQQYWLDGKIIAVGVLDILPYCVSSVYLYYDPDYSFLSLGVYSALREIAFTRQLHEKTSQLSYYYMGFYIHSCPKMRYKGQYRPSDLLCPETYVWVPIEQCLPSLDNSKYCRFNQDPEAEDEGRSKELDRLRVFHRRSAMPYGVYKNHQEDPSEEAGVLEYANLVGQKCSERMLLFRH
notes: untagged after cleavage; also called R-transferase Ate1; arginyltransferase Ate1; source: E. coli Rosetta(DE3)pLysS, purified (Ni-NTA, Ub moiety cleaved with Usp2-cc, second Ni-NTA)
On to B1, for which the binding result is reported as “binds”.

B2: Arginyl-tRNA-protein transferase Ate1, isoform Ate1-1 (enzyme, mouse, UniProt Q9Z2A5-1 1-516, looked up)
chain: MASWSAPSPSLVEYFEGQTSFQCGYCKNKLGSRSYGMWAHSMTVQDYQDLIDRGWRRSGKYVYKPVMDQTCCPQYTIRCHPLQFQPSKSHKKVLKKMLKFLAKGEISKGNCEDEPMDSTVEDAVDGDFALINKLDIKCDLKTLSDLKGSIESEEKEKEKSIKKEGSKEFIHPQSIEEKLGSGEPSHPIKVHIGPKPGKGADLSKPPCRKAREMRKERQRLKRMQQASAAASEAQGQPVCLLPKAKSNQPKSLEDLIFQSLPENASHKLEVRVVRSSPPSPQFRATFQESYQVYKRYQMVVHKDPPDKPTVSQFTRFLCSSPLEAEHPADGPECGYGSFHQQYWLDGKIIAVGVLDILPYCVSSVYLYYDPDYSFLSLGVYSALREIAFTRQLHEKTSQLSYYYMGFYIHSCPKMRYKGQYRPSDLLCPETYVWVPIEQCLPSLDNSKYCRFNQDPEAEDEGRSKELDRLRVFHRRSAMPYGVYKNHQEDPSEEAGVLEYANLVGQKCSERMLLFRH
notes: mouse arginyl-tRNA-protein transferase Ate1, isoform Ate1-1; untagged after cleavage; also called R-transferase Ate1; arginyltransferase Ate1; source: E. coli Rosetta(DE3)pLysS, purified (Ni-NTA, Ub moiety cleaved with Usp2-cc, second Ni-NTA)
For B2, the binding result was “binds”.
